Measurements as given in patent US20180037622A1.
Read-outs that look alike come from different tables or passages of the source.

How the values were obtained:
Assay in all cases: cell-based or functional assay
Activin A [1] = biological target: T1, Activin A (UniProt P08476)
T1 sequence (looked up): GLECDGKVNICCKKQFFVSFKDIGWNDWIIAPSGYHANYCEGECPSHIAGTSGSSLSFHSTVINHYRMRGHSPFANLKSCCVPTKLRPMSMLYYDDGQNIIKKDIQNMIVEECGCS

[2] = biological target: T2, Growth and Differentiation Factor-11 (GDF11) (UniProt O95390)
T2 sequence (looked up): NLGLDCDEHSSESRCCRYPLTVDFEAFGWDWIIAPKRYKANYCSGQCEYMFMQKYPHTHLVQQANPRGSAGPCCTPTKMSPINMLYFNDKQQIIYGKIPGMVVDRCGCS

Activin A [3] = biological target: T1, Activin A; remark: listed apart in the source
[4] = biological target: T2, Growth and Differentiation Factor-11 (GDF11); remark: listed apart in the source

| Binder | IC50 (Activin A [1]) [µg/mL] | IC50 [2] [µg/mL] | IC50 (Activin A [3]) [µg/mL] | IC50 [4] [µg/mL] | Activin Inhibition Activity (KI) (Activin A [3]) [nM] | GDF11 Inhibition Activity (KI) [4] [nM] |
| --- | --- | --- | --- | --- | --- | --- |
| ActRIIB(20-128)-hFc (Fc fusion, not shown: a dimerising Fc or GST) GRGEAETRECIYYNANWELERTNQSGLERCEGEQDKRLHCYASWRNSSGTIELVKKGCWLDDFNCYDRQECVATEENPQVYFCCCEGNFCNERFTHLPEAGGPEVTYEP | – | – | 0.158 | 0.13 | – | – |
| ActRIIB(20-132)-hFc (Fc fusion, not shown: a dimerising Fc or GST) GRGEAETRECIYYNANWELERTNQSGLERCEGEQDKRLHCYASWRNSSGTIELVKKGCWLDDFNCYDRQECVATEENPQVYFCCCEGNFCNERFTHLPEAGGPEVTYEPPPTA | – | – | 0.032 | 0.087 | – | – |
| ActRIIB(21-131)-hFc (Fc fusion, not shown: a dimerising Fc or GST) RGEAETRECIYYNANWELERTNQSGLERCEGEQDKRLHCYASWRNSSGTIELVKKGCWLDDFNCYDRQECVATEENPQVYFCCCEGNFCNERFTHLPEAGGPEVTYEPPPT | 0.325 | 0.121 | – | – | – | – |
| ActRIIB(20-131)-hFc (Fc fusion, not shown: a dimerising Fc or GST) GRGEAETRECIYYNANWELERTNQSGLERCEGEQDKRLHCYASWRNSSGTIELVKKGCWLDDFNCYDRQECVATEENPQVYFCCCEGNFCNERFTHLPEAGGPEVTYEPPPT | 0.201 | 0.183 | 0.044 | 0.12 | – | – |

Continued, values first:

| IC50 (Activin A [1]) [µg/mL] | IC50 [2] [µg/mL] | IC50 (Activin A [3]) [µg/mL] | IC50 [4] [µg/mL] | Activin Inhibition Activity (KI) (Activin A [3]) [nM] | GDF11 Inhibition Activity (KI) [4] [nM] | Binder |
| --- | --- | --- | --- | --- | --- | --- |
| 0.1 | 0.071 | – | – | – | – | ActRIIB(22-131)-hFc (Fc fusion, not shown: a dimerising Fc or GST) GEAETRECIYYNANWELERTNQSGLERCEGEQDKRLHCYASWRNSSGTIELVKKGCWLDDFNCYDRQECVATEENPQVYFCCCEGNFCNERFTHLPEAGGPEVTYEPPPT |
| 0.043 | 0.06 | – | – | – | – | ActRIIB(23-131)-hFc (Fc fusion, not shown: a dimerising Fc or GST) EAETRECIYYNANWELERTNQSGLERCEGEQDKRLHCYASWRNSSGTIELVKKGCWLDDFNCYDRQECVATEENPQVYFCCCEGNFCNERFTHLPEAGGPEVTYEPPPT |
| 0.105 | 0.069 | – | – | – | – | ActRIIB(24-131)-hFc (Fc fusion, not shown: a dimerising Fc or GST) AETRECIYYNANWELERTNQSGLERCEGEQDKRLHCYASWRNSSGTIELVKKGCWLDDFNCYDRQECVATEENPQVYFCCCEGNFCNERFTHLPEAGGPEVTYEPPPT |
| – | – | – | – | 1000 | 1000 | ActRIIB-Fc A64 20-134 (Fc fusion, not shown: a dimerising Fc or GST) GRGEAETRECIYYNANWELERTNQSGLERCEGEQDKRLHCYASWANSSGTIELVKKGCWLDDFNCYDRQECVATEENPQVYFCCCEGNFCNERFTHLPEAGGPEVTYEPPPTAPT |
